Experimental data reported in article doi:10.1101/2020.10.13.337493 (bioRxiv, 2020).

B1: VAP-A (natural protein, human, UniProt Q9P0L0 8-249, looked up)
chain: MAKHEQILVLDPPTDLKFKGPFTDVVTTNLKLRNPSDRKVCFKVKTTAPRRYCVRPNSGIIDPGSTVTVSVMLQPFDYDPNEKSKHKFMVQTIFAPPNTSDMEAVWKEAKPDELMDSKLRCVFEMPNENDKLNDMEPSKAVPLNASKQDGPMPKPHSVSLNDTETRKLMEECKRLQGEMMKLSEENRHLRDEGLRLRKVAHSDKPGSTSTASFRDNVTSPLPSLLVVIAAIFIGFFLGKFIL
B2: N-PH-FFAT construct of OSBP (domain or fragment, human, UniProt P22059 1-408, looked up)
chain: MAATELRGVVGPGPAAIAALGGGGAGPPVVGGGGGRGDAGPGSGAASGTVVAAAAGGPGPGAGGVAAAGPAPAPPTGGSGGSGAGGSGSAREGWLFKWTNYIKGYQRRWFVLSNGLLSYYRSKAEMRHTCRGTINLATANITVEDSCNFIISNGGAQTYHLKASSEVERQRWVTALELAKAKAVKMLAESDESGDEESVSQTDKTELQNTLRTLSSKVEDLSTCNDLIAKHGTALQRSLSELESLKLPAESNEKIKQVNERATLFRITSNAMINACRDFLMLAQTHSKKWQKSLQYERDQRIRLEETLEQLAKQHNHLERAFRGATVLPANTPGNVGSGKDQCCSGKGDMSDEDDENEFFDAPEIITMPENLGHKRTGSNISGASSDISLDEQYKHQLEETKKEKRTR

Assays:
[1] = target: OSBP CC[V199C] construct (V199C/C224A/C276A), labelled with AF-488 or AF-568 (human) (UniProt P22059); experiment: FRET or BRET
[2] = target: OSBP Central Core (CC), wild type (human) (UniProt P22059); experiment: SEC
[3] = target: the molecule itself; experiment: cryo-EM structure
[4] = target: B2; experiment: membrane tethering in reconstituted contact sites, seen by cryo-EM and cryo-ET

OSBP CC[V199C] construct (V199C/C224A/C276A), labelled with AF-488 or AF-568 (from UniProt P22059 199-324) (domain or fragment)
half-time of monomer exchange [1]: 100 min

OSBP Central Core (CC), wild type (from UniProt P22059 199-324) (domain or fragment)
stoichiometry N [2]: 2

B1
stoichiometry N [3]: 2 | binding result [4]: binds

B2
stoichiometry N [3]: 2
